Source: IntAct's records for PubMed 24705590

B1: Microcin J25 (Escherichia coli), Q9X2V7 (parent)
chain: MIKHFHFNKLSSGKKNNVPSPAKGVIQIKKSASQLTKGGAGHVPEYFVGIGTPISFYG

Variants of: B1
Conditions: with fhua_ecoli fhuA

Row | Variant | effect of a mutation on the interaction
1 | MIKHFHFNKLSSGKKNNVPSPAKGVIQIKKSASQLTKGGAGKVPEYFVGIGTPISFYG | decreasing interaction strength
